Measured values as given in US20210340196A1 (UNIVERSIDAD DE ZARAGOZA, published 2021).

Target: T1, carcinoembryonic antigen (CEA), purified antigen (UniProt P06731 35-685)
T1 construct: Purified CEA coated on ELISA wells; also called CEA antigen
T1 sequence (looked up): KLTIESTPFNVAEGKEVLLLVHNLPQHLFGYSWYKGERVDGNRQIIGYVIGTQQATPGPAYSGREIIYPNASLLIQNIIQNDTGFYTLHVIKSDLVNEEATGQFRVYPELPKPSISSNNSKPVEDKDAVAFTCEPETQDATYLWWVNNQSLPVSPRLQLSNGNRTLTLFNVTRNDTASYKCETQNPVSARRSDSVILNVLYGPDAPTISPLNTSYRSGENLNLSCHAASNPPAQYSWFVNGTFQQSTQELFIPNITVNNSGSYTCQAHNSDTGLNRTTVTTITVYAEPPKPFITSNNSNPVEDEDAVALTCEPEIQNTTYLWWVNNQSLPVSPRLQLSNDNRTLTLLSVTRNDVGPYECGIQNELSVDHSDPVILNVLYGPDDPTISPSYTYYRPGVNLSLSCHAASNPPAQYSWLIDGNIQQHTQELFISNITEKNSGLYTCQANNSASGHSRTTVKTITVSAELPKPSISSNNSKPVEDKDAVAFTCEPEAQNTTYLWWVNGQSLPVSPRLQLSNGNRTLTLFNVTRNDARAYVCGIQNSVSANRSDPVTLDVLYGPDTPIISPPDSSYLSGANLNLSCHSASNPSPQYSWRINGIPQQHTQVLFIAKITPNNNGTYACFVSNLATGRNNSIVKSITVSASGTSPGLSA
Experiment: ELISA, 200 ng CEA coated per well, 500 ng scFv MFE23 as positive control, anti-His tag antibody + HRP anti-mouse IgG, OPD read at 492 nm
Experimental: FIG. 7. ELISA performed with 200 ng of CEA per well (left overnight at 4° C.), PBS (negative control), 500 ng of recombinant scFv MFE23 (positive control), and the P. pastoris supernatant transformed with pPICZαC-Chimera were then added after inducing expression with methanol. To develop the binding of scFvs to the CEA antigen, an anti-histidine tag antibody and a peroxidase-conjugated goat anti-mouse IgG secondary antibody were used. The peroxidase substrate was OPD, producing a yellow-orange product that can be detected at 492 nm.
An ELISA was performed using 200 ng of CEA per well, which was incubated overnight at 4° C., PBS (negative control), 500 ng of the recombinant scFv MFE23 (positive control), and the P. pastoris supernatant transformed with pPICZαC-Chimera after inducing expression with methanol were then added. To develop the binding of scFvs to the CEA antigen, an anti-histidine tag antibody and a peroxidase-conjugated goat anti-mouse IgG secondary antibody were used. The peroxidase substrate was OPD, producing a yellow-orange product that can be detected at 492 nm.

B1: recombinant scFv MFE23 (scFv)
scFv: QVKLQQSGAELVRSGTSVKLSCTASGFNIKDSYMHWLRQGPEQGLEWIGWIDPENGDTEYAPKFQGKATFTTDTSSNTAYLQLSSLTSEDTAVYYCNEGTPTGPYYFDYWGQGTTVTVSSGGGGSGGGGSGGGGSENVLTQSPAIMSASPGEKVTITCSASSSVSYMHWFQQKPGTSPKLWIYSTSNLASGVPARFSGSGSGTSYSLTISRMEAEDAATYYCQQRSSYPLTFGAGTKLELKR
notes: Positive control in the ELISA, 500 ng; also called anti-CEA scFv MFE23
- binding result: binds
